Key:
[1] = molecular target: FANCB-FANCL-FAAP100 complex (human, UniProt Q8NB91;Q9NW38;Q0VG06); test: SEC
[2] = molecular target: the molecule itself; test: negative-stain single-particle EM

FANCB-FANCL-FAAP100 complex, sequence (Q9NW38 whole entry, chain 2 of 2): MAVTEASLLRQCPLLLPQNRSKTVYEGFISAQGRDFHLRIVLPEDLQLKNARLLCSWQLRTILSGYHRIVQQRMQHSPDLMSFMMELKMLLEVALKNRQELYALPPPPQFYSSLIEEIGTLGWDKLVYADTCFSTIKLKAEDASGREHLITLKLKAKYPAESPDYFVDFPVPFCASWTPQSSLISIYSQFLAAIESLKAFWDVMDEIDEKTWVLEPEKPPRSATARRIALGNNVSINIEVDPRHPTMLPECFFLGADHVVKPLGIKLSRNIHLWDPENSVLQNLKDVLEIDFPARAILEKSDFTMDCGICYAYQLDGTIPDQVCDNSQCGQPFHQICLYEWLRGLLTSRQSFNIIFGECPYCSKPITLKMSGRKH
FANCB-FANCL-FAAP100 complex, sequence (Q0VG06 whole entry, chain 3 of 2): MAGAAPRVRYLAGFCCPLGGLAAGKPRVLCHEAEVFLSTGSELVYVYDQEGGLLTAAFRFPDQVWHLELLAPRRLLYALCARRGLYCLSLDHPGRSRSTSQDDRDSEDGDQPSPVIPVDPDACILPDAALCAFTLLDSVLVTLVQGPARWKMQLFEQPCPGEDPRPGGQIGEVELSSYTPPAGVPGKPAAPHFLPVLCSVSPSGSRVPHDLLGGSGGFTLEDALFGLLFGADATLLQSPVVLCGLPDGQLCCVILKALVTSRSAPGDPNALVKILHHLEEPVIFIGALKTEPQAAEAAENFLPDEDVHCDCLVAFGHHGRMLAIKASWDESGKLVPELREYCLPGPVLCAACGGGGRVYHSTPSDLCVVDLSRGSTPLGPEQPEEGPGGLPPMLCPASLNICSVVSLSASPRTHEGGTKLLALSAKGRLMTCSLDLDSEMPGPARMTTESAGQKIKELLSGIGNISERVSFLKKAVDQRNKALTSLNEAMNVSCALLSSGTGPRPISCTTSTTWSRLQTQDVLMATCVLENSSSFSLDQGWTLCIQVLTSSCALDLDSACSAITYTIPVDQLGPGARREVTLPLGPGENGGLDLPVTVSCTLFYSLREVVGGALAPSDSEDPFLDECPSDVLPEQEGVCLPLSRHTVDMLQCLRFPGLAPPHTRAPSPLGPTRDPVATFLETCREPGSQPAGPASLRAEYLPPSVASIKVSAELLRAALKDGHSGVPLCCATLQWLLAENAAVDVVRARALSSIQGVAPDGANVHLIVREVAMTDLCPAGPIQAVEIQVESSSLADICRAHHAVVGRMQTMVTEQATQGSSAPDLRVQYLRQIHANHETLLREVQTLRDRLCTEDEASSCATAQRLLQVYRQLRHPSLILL

Binder | binding result [1] | stoichiometry N [2]
(MBP)FANCC-FANCE-FANCF complex (complex) chain 1: MAQDSVDLSCDYQFWMQKLSVWDQASTLETQQDTCLHVAQFQEFLRKMYEALKEMDSNTVIERFPTIGQLLAKACWNPFILAYDESQKILIWCLCCLINKEPQNSGQSKLNSWIQGVLSHILSALRFDKEVALFTQGLGYAPIDYYPGLLKNMVLSLASELRENHLNGFNTQRRMAPERVASLSRVCVPLITLTDVDPLVEALLICHGREPQEILQPEFFEAVNEAILLKKISLPMSAVVCLWLRHLPSLEKAMLHLFEKLISSERNCLRRIECFIKDSSLPQAACHPAIFRVVDEMFRCALLETDGALEIIATIQVFTQCFVEALEKASKQLRFALKTYFPYTSPSLAMVLLQDPQDIPRGHWLQTLKHISELLREAVEDQTHGSCGGPFESWFLFIHFGGWAEMVAEQLLMSAAEPPTALLWLLAFYYGPRDGRQQRAQTMVQVKAVLGHLLAMSRSSSLSAQDLQTVAGQGTDTDLRAPAQQLIRHLLLNFLLWAPGGHTIAWDVITLMAHTAEITHEIIGFLDQTLYRWNRLGIESPRSEKLARELLKELRTQV chain 2: MATPDAGLPGAEGVEPAPWAQLEAPARLLLQALQAGPEGARRGLGVLRALGSRGWEPFDWGRLLEALCREEPVVQGPDGRLELKPLLLRLPRICQRNLMSLLMAVRPSLPESGLLSVLQIAQQDLAPDPDAWLRALGELLRRDLGVGTSMEGASPLSERCQRQLQSLCRGLGLGGRRLKSPQAPDPEEEENRDSQQPGKRRKDSEEEAASPEGKRVPKRLRCWEEEEDHEKERPEHKSLESLADGGSASPIKDQPVMAVKTGEDGSNLDDAKGLAESLELPKAIQDQLPRLQQLLKTLEEGLEGLEDAPPVELQLLHECSPSQMDLLCAQLQLPQLSDLGLLRLCTWLLALSPDLSLSNATVLTRSLFLGRILSLTSSASRLLTTALTSFCAKYTYPVCSALLDPVLQAPGTGPAQTELLCCLVKMESLEPDAQVLMLGQILELPWKEETFLVLQSLLERQVEMTPEKFSVLMEKLCKKGLAATTSMAYAKLMLTVMTKYQANITETQRLGLAMALEPNTTFLRKSLKAALKHLGP chain 3: MESLLQHLDRFSELLAVSSTTYVSTWDPATVRRALQWARYLRHIHRRFGRHGPIRTALERRLHNQWRQEGGFGRGPVPGLANFQALGHCDVLLSLRLLENRALGDAARYHLVQQLFPGPGVRDADEETLQESLARLARRRSAVHMLRFNGYRENPNLQEDSLMKTQAELLLERLQEVGKAEAERPARFLSSLWERLPQNNFLKVIAVALLQPPLSRRPQEELEPGIHKSPGEGSQVLVHWLLGNSEVFAAFCRALPAGLLTLVTSRHPALSPVYLGLLTDWGQRLHYDLQKGIWVGTESQDVPWEELHNRFQSLCQAPPPLKDKVLTALETCKAQDGDFEVPGLSIWTDLLLALRSGAFRKRQVLGLSAGLSSV | binds | 
FANCB (natural protein) MTSKQAMSSNEQERLLCYNGEVLVFQLSKGNFADKEPTKTPILHVRRMVFDRGTKVFVQKSTGFFTIKEENSHLKIMCCNCVSDFRTGINLPYIVIEKNKKNNVFEYFLLILHSTNKFEMRLSFKLGYEMKDGLRVLNGPLILWRHVKAFFFISSQTGKVVSVSGNFSSIQWAGEIENLGMVLLGLKECCLSEEECTQEPSKSDYAIWNTKFCVYSLESQEVLSDIYIIPPAYSSVVTYVHICATEIIKNQLRISLIALTRKNQLISFQNGTPKNVCQLPFGDPCAVQLMDSGGGNLFFVVSFISNNACAVWKESFQVAAKWEKLSLVLIDDFIGSGTEQVLLLFKDSLNSDCLTSFKITDLGKINYSSEPSDCNEDDLFEDKQENRYLVVPPLETGLKVCFSSFRELRQHLLLKEKIISKSYKALINLVQGKDDNTSSAEEKECLVPLCGEEENSVHILDEKLSDNFQDSEQLVEKIWYRVIDDSLVVGVKTTSSLKLSLNDVTLSLLMDQAHDSRFRLLKCQNRVIKLSTNPFPAPYLMPCEIGLEAKRVTLTPDSKKEESFVCEHPSKKECVQIITAVTSLSPLLTFSKFCCTVLLQIMERESGNCPKDRYVVCGRVFLSLEDLSTGKYLLTFPKKKPIEHMEDLFALLAAFHKSCFQITSPGYALNSMKVWLLEHMKCEIIKEFPEVYFCERPGSFYGTLFTWKQRTPFEGILIIYSRNQTVMFQCLHNLIRILPINCFLKNLKSGSENFLIDNMAFTLEKELVTLSSLSSAIAKHESNFMQRCEVSKGKSSVVAAALSDRRENIHPYRKELQREKKKMLQTNLKVSGALYREITLKVAEVQLKSDFAAQKLSNL |  | 2

From publication PMC5266791 (Cell Reports, 2016)
